Assay results: US20220306695A1, “COMPSTATIN ANALOGUES AND THEIR MEDICAL USES” (priority 2019, published 2022)
Starred links: 1 amine or outer side, 2 acyl side, 3 side chain; linkers in the order of their positions; H or OH if unused. Positions of bridges follow the written chain, without caps; N, C: chain ends. Non-standard residues stand in square brackets, D forms with d. Groups on a side chain read outwards from the residue. *: point of attachment. Trp(1-Me) = Cn1cc(C[C@H](N)C(=O)O)c2ccccc21; C18 diacid = O=C(O)CCCCCCCCCCCCCCCCC(=O)*; C16 diacid = O=C(O)CCCCCCCCCCCCCCC(=O)*; γGlu = O=C(O)[C@H](CCC(=O)[*:2])N[*:1]; hCys = N[C@@H](CCS)C(=O)O; AEEA = NCCOCCOCC(=O)O; Sar = CNCC(=O)O

Target: Human C3 (human, UniProt P01024 23-1663)
Experiment: cell-based or functional assay

Chain of Human C3 (P01024 23-1663 limits assumed): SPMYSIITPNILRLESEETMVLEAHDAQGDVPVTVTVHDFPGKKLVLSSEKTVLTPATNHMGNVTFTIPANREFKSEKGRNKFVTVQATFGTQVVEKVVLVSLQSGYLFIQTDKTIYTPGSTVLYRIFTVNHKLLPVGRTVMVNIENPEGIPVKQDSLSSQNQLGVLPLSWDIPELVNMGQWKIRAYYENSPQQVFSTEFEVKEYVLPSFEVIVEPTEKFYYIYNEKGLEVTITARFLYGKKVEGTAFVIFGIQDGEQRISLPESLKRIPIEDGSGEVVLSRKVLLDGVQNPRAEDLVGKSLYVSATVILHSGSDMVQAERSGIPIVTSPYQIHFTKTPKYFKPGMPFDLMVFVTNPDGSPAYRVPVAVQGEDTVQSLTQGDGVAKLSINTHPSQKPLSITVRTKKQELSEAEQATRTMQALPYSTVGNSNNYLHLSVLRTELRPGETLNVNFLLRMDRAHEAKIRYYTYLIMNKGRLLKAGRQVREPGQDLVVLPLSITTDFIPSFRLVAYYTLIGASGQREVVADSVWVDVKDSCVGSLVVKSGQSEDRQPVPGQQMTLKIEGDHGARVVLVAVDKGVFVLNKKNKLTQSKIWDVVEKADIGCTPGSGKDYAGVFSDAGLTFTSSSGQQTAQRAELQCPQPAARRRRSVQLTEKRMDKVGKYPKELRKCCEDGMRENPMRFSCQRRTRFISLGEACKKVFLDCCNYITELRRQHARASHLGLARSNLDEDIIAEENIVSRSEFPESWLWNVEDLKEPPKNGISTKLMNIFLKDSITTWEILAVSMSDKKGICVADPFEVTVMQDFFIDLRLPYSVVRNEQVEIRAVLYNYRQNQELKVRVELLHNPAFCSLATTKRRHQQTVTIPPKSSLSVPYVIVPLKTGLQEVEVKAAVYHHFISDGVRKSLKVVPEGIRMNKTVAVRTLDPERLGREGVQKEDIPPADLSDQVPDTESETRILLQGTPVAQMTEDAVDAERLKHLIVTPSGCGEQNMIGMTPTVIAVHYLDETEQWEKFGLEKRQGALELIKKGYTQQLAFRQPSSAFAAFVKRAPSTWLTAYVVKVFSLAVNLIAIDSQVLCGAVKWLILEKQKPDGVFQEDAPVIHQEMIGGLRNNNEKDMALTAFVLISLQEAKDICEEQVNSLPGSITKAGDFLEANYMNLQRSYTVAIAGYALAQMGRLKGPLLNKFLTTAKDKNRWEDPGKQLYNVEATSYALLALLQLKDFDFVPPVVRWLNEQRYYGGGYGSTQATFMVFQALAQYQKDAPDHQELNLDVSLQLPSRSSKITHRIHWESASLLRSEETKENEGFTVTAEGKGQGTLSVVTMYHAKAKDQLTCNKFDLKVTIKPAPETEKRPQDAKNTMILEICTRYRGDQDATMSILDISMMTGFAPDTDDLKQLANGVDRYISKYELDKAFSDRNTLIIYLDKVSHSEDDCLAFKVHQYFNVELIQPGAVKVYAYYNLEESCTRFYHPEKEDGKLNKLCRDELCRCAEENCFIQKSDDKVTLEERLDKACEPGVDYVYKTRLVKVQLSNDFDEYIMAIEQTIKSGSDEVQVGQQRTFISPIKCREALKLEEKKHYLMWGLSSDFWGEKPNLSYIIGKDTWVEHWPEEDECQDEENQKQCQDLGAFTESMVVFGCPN

Binder	IC50[nM], inhibition of hemolysis	IC50, CP hemolysis
Ac-SEFCI[Trp(1-Me)]QDWGEHRCTEGE[8‑aminooctanoyl]K([γGlu-Gly-γGlu-C18 diacid])-NH2 (disulfide 4-14) [Compound 136]	< 100 nM	
Ac-SEFCI[Trp(1-Me)]QDWGEHRCTEGE[8‑aminooctanoyl]EK([γGlu-Gly-γGlu-C18 diacid])-NH2 (disulfide 4-14) [Compound 137]	< 100 nM	
Ac-SEFCI[Trp(1-Me)]QDWGEHRC[Sar]EGE[AEEA]K([γGlu-Gly-γGlu-C18 diacid])-NH2 (disulfide 4-14) [Compound 138]	< 100 nM	
Ac-SEFCI[Trp(1-Me)]QDWGEHRC[Sar]EGE[AEEA][AEEA][AEEA]K([γGlu-Gly-γGlu-C18 diacid])-NH2 (disulfide 4-14; SMILES CC[C@H](C)[C@@H]1NC(=O)[C@@H](NC(=O)[C@H](Cc2ccccc2)NC(=O)[C@H](CCC(=O)O)NC(=O)[C@H](CO)NC(C)=O)CSSC[C@@H](C(=O)N(C)CC(=O)N[C@@H](CCC(=O)O)C(=O)NCC(=O)N[C@@H](CCC(=O)O)C(=O)NCCOCCOCC(=O)NCCOCCOCC(=O)NCCOCCOCC(=O)N[C@@H](CCCCNC(=O)CC[C@H](NC(=O)CNC(=O)CC[C@H](NC(=O)CCCCCCCCCCCCCCCCC(=O)O)C(=O)O)C(=O)O)C(N)=O)NC(=O)[C@H](CCCNC(=N)N)NC(=O)[C@H](Cc2c[nH]cn2)NC(=O)[C@H](CCC(=O)O)NC(=O)CNC(=O)[C@H](Cc2c[nH]c3ccccc23)NC(=O)[C@H](CC(=O)O)NC(=O)[C@H](CCC(N)=O)NC(=O)[C@H](Cc2cn(C)c3ccccc23)NC1=O) [Compound 143]	< 100 nM	
Ac-EFCI[Trp(1-Me)]QDWGEHRC[Sar]EA[AEEA][AEEA]K([γGlu-Gly-γGlu-C18 diacid])-NH2 (disulfide 3-13; SMILES CC[C@H](C)[C@@H]1NC(=O)[C@@H](NC(=O)[C@H](Cc2ccccc2)NC(=O)[C@H](CCC(=O)O)NC(C)=O)CSSC[C@@H](C(=O)N(C)CC(=O)N[C@@H](CCC(=O)O)C(=O)N[C@@H](C)C(=O)NCCOCCOCC(=O)NCCOCCOCC(=O)N[C@@H](CCCCNC(=O)CC[C@H](NC(=O)CNC(=O)CC[C@H](NC(=O)CCCCCCCCCCCCCCCCC(=O)O)C(=O)O)C(=O)O)C(N)=O)NC(=O)[C@H](CCCNC(=N)N)NC(=O)[C@H](Cc2c[nH]cn2)NC(=O)[C@H](CCC(=O)O)NC(=O)CNC(=O)[C@H](Cc2c[nH]c3ccccc23)NC(=O)[C@H](CC(=O)O)NC(=O)[C@H](CCC(N)=O)NC(=O)[C@H](Cc2cn(C)c3ccccc23)NC1=O) [Compound 145]	< 100 nM	
Ac-GEFAI[Trp(1-Me)]QEWGEHR[hCys][Sar]EGE[AEEA]ESK([γGlu-Gly-γGlu-C18 diacid])-NH2 (thioether 4-14; SMILES CC[C@H](C)[C@@H]1NC(=O)[C@@H](NC(=O)[C@H](Cc2ccccc2)NC(=O)[C@H](CCC(=O)O)NC(=O)CNC(C)=O)CSCC[C@@H](C(=O)N(C)CC(=O)N[C@@H](CCC(=O)O)C(=O)NCC(=O)N[C@@H](CCC(=O)O)C(=O)NCCOCCOCC(=O)N[C@@H](CCC(=O)O)C(=O)N[C@@H](CO)C(=O)N[C@@H](CCCCNC(=O)CC[C@H](NC(=O)CNC(=O)CC[C@H](NC(=O)CCCCCCCCCCCCCCCCC(=O)O)C(=O)O)C(=O)O)C(N)=O)NC(=O)[C@H](CCCNC(=N)N)NC(=O)[C@H](Cc2c[nH]cn2)NC(=O)[C@H](CCC(=O)O)NC(=O)CNC(=O)[C@H](Cc2c[nH]c3ccccc23)NC(=O)[C@H](CCC(=O)O)NC(=O)[C@H](CCC(N)=O)NC(=O)[C@H](Cc2cn(C)c3ccccc23)NC1=O) [Compound 155]	< 100 nM	
Ac-SEFAI[Trp(1-Me)]QDWGEHR[hCys]TEGE[AEEA][AEEA]K([γGlu-Gly-γGlu-C18 diacid])-NH2 (thioether 4-14; SMILES CC[C@H](C)[C@@H]1NC(=O)[C@@H](NC(=O)[C@H](Cc2ccccc2)NC(=O)[C@H](CCC(=O)O)NC(=O)[C@H](CO)NC(C)=O)CSCC[C@@H](C(=O)N[C@H](C(=O)N[C@@H](CCC(=O)O)C(=O)NCC(=O)N[C@@H](CCC(=O)O)C(=O)NCCOCCOCC(=O)NCCOCCOCC(=O)N[C@@H](CCCCNC(=O)CC[C@H](NC(=O)CNC(=O)CC[C@H](NC(=O)CCCCCCCCCCCCCCCCC(=O)O)C(=O)O)C(=O)O)C(N)=O)[C@@H](C)O)NC(=O)[C@H](CCCNC(=N)N)NC(=O)[C@H](Cc2c[nH]cn2)NC(=O)[C@H](CCC(=O)O)NC(=O)CNC(=O)[C@H](Cc2c[nH]c3ccccc23)NC(=O)[C@H](CC(=O)O)NC(=O)[C@H](CCC(N)=O)NC(=O)[C@H](Cc2cn(C)c3ccccc23)NC1=O) [Compound 156]	< 100 nM	
Ac-EFAI[Trp(1-Me)]QEWGEHR[hCys][Sar]EA[AEEA][AEEA]K([γGlu-Gly-γGlu-C18 diacid])-NH2 (thioether 3-13; SMILES CC[C@H](C)[C@@H]1NC(=O)[C@@H](NC(=O)[C@H](Cc2ccccc2)NC(=O)[C@H](CCC(=O)O)NC(C)=O)CSCC[C@@H](C(=O)N(C)CC(=O)N[C@@H](CCC(=O)O)C(=O)N[C@@H](C)C(=O)NCCOCCOCC(=O)NCCOCCOCC(=O)N[C@@H](CCCCNC(=O)CC[C@H](NC(=O)CNC(=O)CC[C@H](NC(=O)CCCCCCCCCCCCCCCCC(=O)O)C(=O)O)C(=O)O)C(N)=O)NC(=O)[C@H](CCCNC(=N)N)NC(=O)[C@H](Cc2c[nH]cn2)NC(=O)[C@H](CCC(=O)O)NC(=O)CNC(=O)[C@H](Cc2c[nH]c3ccccc23)NC(=O)[C@H](CCC(=O)O)NC(=O)[C@H](CCC(N)=O)NC(=O)[C@H](Cc2cn(C)c3ccccc23)NC1=O) [Compound 158]	< 250 nM	
EGSAYAIWQDWGEHRCGEKEK (not fully specified; N-acetyl; C-terminal amide; delta-cystathionine (Ctt2) thioether bridge A6-hCys16 (hCys written C); W8 is 1-Me-Trp; G17 is Sar; E20 is γGlu; K21 side chain bears [17-carboxy-heptadecanoyl][γGlu][Peg3][Peg3]) [Compound 159]	< 100 nM	
Ac-SEFAI[Trp(1-Me)]QDWGEHR[hCys][Sar]EGE[AEEA][AEEA]K([γGlu-Gly-γGlu-C16 diacid])-NH2 (thioether 4-14) [Compound 160]	< 100 nM	
Ac-SEFAI[Trp(1-Me)]QDW[Sar]EHR[hCys][Sar]E[AEEA][AEEA]K([γGlu-Gly-γGlu-C18 diacid])-OH (thioether 4-14) [Compound 162]	< 100 nM	
Ac-SEFAI[Trp(1-Me)]QDWGEHR[hCys]TEGE[AEEA]ESK([γGlu-C18 diacid])-OH (thioether 4-14) [Compound 163]	< 100 nM	
Ac-[Sar]CIWQDWGEHRCT-NH2 (disulfide 2-12; SMILES CC[C@H](C)[C@@H]1NC(=O)[C@@H](NC(=O)CN(C)C(C)=O)CSSC[C@@H](C(=O)N[C@H](C(N)=O)[C@@H](C)O)NC(=O)[C@H](CCCNC(=N)N)NC(=O)[C@H](Cc2c[nH]cn2)NC(=O)[C@H](CCC(=O)O)NC(=O)CNC(=O)[C@H](Cc2c[nH]c3ccccc23)NC(=O)[C@H](CC(=O)O)NC(=O)[C@H](CCC(N)=O)NC(=O)[C@H](Cc2c[nH]c3ccccc23)NC1=O) [Compound 11]	< 100 nM	
Ac-ICLWQDWGEHRCT-NH2 (disulfide 2-12; SMILES CC[C@H](C)[C@H](NC(C)=O)C(=O)N[C@H]1CSSC[C@@H](C(=O)N[C@H](C(N)=O)[C@@H](C)O)NC(=O)[C@H](CCCNC(=N)N)NC(=O)[C@H](Cc2c[nH]cn2)NC(=O)[C@H](CCC(=O)O)NC(=O)CNC(=O)[C@H](Cc2c[nH]c3ccccc23)NC(=O)[C@H](CC(=O)O)NC(=O)[C@H](CCC(N)=O)NC(=O)[C@H](Cc2c[nH]c3ccccc23)NC(=O)[C@H](CC(C)C)NC1=O) [Ac-IC(1)X…(1)T-NH2 with Leucine at position 3]		500 nM
Ac-ICFWQDWGEHRCT-NH2 (disulfide 2-12; SMILES CC[C@H](C)[C@H](NC(C)=O)C(=O)N[C@H]1CSSC[C@@H](C(=O)N[C@H](C(N)=O)[C@@H](C)O)NC(=O)[C@H](CCCNC(=N)N)NC(=O)[C@H](Cc2c[nH]cn2)NC(=O)[C@H](CCC(=O)O)NC(=O)CNC(=O)[C@H](Cc2c[nH]c3ccccc23)NC(=O)[C@H](CC(=O)O)NC(=O)[C@H](CCC(N)=O)NC(=O)[C@H](Cc2c[nH]c3ccccc23)NC(=O)[C@H](Cc2ccccc2)NC1=O) [Ac-IC(1)X…(1)T-NH2 with Phenylalanine at position 3]		> 10000 nM
Ac-GSAICIWQDWGEHRC[Sar]E-NH2 (disulfide 5-15; SMILES CC[C@H](C)[C@H](NC(=O)[C@H](C)NC(=O)[C@H](CO)NC(=O)CNC(C)=O)C(=O)N[C@H]1CSSC[C@@H](C(=O)N(C)CC(=O)N[C@@H](CCC(=O)O)C(N)=O)NC(=O)[C@H](CCCNC(=N)N)NC(=O)[C@H](Cc2c[nH]cn2)NC(=O)[C@H](CCC(=O)O)NC(=O)CNC(=O)[C@H](Cc2c[nH]c3ccccc23)NC(=O)[C@H](CC(=O)O)NC(=O)[C@H](CCC(N)=O)NC(=O)[C@H](Cc2c[nH]c3ccccc23)NC(=O)[C@H]([C@@H](C)CC)NC1=O) [Compound 40]	< 250 nM	
Ac-SAICIWQDWGEHRC[Sar]E-NH2 (disulfide 4-14; SMILES CC[C@H](C)[C@H](NC(=O)[C@H](C)NC(=O)[C@H](CO)NC(C)=O)C(=O)N[C@H]1CSSC[C@@H](C(=O)N(C)CC(=O)N[C@@H](CCC(=O)O)C(N)=O)NC(=O)[C@H](CCCNC(=N)N)NC(=O)[C@H](Cc2c[nH]cn2)NC(=O)[C@H](CCC(=O)O)NC(=O)CNC(=O)[C@H](Cc2c[nH]c3ccccc23)NC(=O)[C@H](CC(=O)O)NC(=O)[C@H](CCC(N)=O)NC(=O)[C@H](Cc2c[nH]c3ccccc23)NC(=O)[C@H]([C@@H](C)CC)NC1=O) [Compound 41]	< 250 nM	
